Data from US20210332115A1 (Sanofi, published 2021).
Where “and” joins values, the source holds several entries; their conditions need not be identical. Equal entries are not always repeated.

B1: VH0/Vκ0 (Chimeric) (antibody, V domains shown)
VH: EVQLVESGGALVKPGGSLKLSCAASGFTFSNYAMSWVRQTPEKRLEWVATISNRGSYTYYPDSVKGRFTISRDNAKNTLYLQMSSLRSEDTALYYCARERPMDYWGQGTSVTVSS
VL: DIVMTQSHKFMSTSVGDRVSITCKASQDVGTAVAWYQQKPGQSPKLLIYWASTRHTGVPDRFTGSGSGTDFTLTITNVQSEDLAVYFCHQHSSNPLTFGAGTKLELK
notes: also called chimeric antibody
B2: VH6/Vκ7-IgG4v2 (antibody)
heavy: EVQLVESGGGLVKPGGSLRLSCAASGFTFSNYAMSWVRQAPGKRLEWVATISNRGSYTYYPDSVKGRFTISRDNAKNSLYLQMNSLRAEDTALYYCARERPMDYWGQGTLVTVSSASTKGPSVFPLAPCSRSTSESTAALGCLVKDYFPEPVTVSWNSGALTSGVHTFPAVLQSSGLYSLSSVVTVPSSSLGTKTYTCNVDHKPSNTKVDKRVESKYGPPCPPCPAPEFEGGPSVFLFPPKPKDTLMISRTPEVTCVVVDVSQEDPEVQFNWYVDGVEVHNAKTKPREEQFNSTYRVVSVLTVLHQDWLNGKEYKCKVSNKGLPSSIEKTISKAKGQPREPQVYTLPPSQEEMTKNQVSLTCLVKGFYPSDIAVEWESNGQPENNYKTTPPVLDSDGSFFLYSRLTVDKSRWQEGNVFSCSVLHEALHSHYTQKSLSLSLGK
light: DIQMTQSPSTLSASVGDRVTITCKASQDVGTAVAWYQQKPGKAPKLLIYWASTRHTGVPDRFSGSGSGTDFTLTISSLQAEDFAVYFCHQHSSNPLTFGQGTKLEIKRTVAAPSVFIFPPSDEQLKSGTASVVCLLNNFYPREAKVQWKVDNALQSGNSQESVTEQDSKDSTYSLSSTLTLSKADYEKHKVYACEVTHQGLSSPVTKSFNRGEC
notes: also called VH6/VK7-IgG4v2; VH6/VK7-IgG4v2_HEK

Experiments:
[1] = target: T1, Homo sapiens factor Bb protein (human, UniProt P00751 260-764); experiment: competition ELISA on coated factor Bb; competitor murine parental antibody
T1 construct: Bought from CompTech (A155); also called complement factor Bb; human factor Bb
T1 sequence (P00751 260-764 limits assumed): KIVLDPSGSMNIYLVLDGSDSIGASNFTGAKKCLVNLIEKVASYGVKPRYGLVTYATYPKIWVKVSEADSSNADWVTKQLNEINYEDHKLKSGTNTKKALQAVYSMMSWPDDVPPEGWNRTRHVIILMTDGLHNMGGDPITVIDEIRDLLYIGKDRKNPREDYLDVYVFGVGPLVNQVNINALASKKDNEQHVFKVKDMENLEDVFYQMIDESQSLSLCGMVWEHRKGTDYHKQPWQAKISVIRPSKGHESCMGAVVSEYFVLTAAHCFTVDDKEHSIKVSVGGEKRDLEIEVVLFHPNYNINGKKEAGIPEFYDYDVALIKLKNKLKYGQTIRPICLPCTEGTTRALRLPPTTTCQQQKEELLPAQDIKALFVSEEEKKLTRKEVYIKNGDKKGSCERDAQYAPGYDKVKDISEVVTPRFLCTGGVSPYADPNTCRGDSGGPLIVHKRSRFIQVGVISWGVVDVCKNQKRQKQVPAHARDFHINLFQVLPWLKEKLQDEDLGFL
Protocol: Factor Bb was diluted in 1× PBS to 1.0 μg/ml and 100 μl/well was coated overnight at 4° C. on a 96-well ELISA plate. The following day the plates were blocked for two hours at room temperature with 1% casein/PBS before washing 2× with PBS pH 7.4. In a 96-well dilution plate a fixed concentration of murine parental antibody (0.5 μg/ml, final concentration) was added in equal volume to a four-fold titration series of test antibody (starting from 45 μg/ml to 0.01 μg/ml, final concentration) diluted in blocking buffer. After washing the plate 3× with PBS-T, 100 μl of chimeric/test antibody mix was added to the ELISA plate. After incubating at room temperature for one hour, the plate was washed 3× with PBS-T and 100 μl of anti-mouse IgG Fc-Specific HRP (Sigma, Dorset, UK) diluted 1:1000 in PBS-T was applied for one hour at room temperature to detect bound mouse antibody. For color development, the plate was washed 3× with PBS-T following which 100 μl of TMB substrate was added and incubated for approximately five minutes at room temperature. The reaction was stopped with 50 μl of 3.0 M hydrochloric acid and absorbance was read immediately using a DYNEX ® plate reader at 450 nm.
IC50 values were calculated for each variant and relative IC50 values were calculated by dividing the IC50 of the humanized variant by that of the chimeric antibody assayed on the same plate (Table 11).

[2] = target: T1, Homo sapiens factor Bb protein; experiment: SPR multi-cycle kinetics; ratio against VH0/Vκ0 on the same chip
Protocol: (§1) Antibodies were diluted in running buffer to a final concentration of 0.5 μg/ml. At the start of each cycle, antibodies were loaded onto Fc2, Fc3 and Fc4 of the Protein A chip (GE Healthcare, Little Chalfont, UK). IgGs were captured at a flow rate of 10 μl/min to give an immobilisation level (RL) of ˜63 RU, the theoretical value to obtain an Rmax of ˜50 RU. The surface was then allowed to stabilize. Kinetic data was obtained with factor Bb as analyte and using a flow rate of 30 μl/min to minimize any potential mass transfer effects. Multiple repeats of a blank and a repeat of a single concentration of the analyte were programmed into the kinetic run in order to check the stability of both the surface and analyte over the kinetic cycles. For kinetic analysis, a two-fold dilution range was selected from 12. 5 nM to 0. 391 nM factor Bb. The association phase of factor Bb was monitored for 360 seconds and the dissociation phase was monitored for 600 seconds. Regeneration of the Protein A surface was conducted using two injections of 10 mM glycine-HCL pH 1. 5. The signal from the reference channel Fc1 was subtracted from that of Fc2, Fc3 and Fc4 to correct for differences in non-specific binding to a reference surface, and a global Rmax parameter was used in the 1-to-1 binding model.
(§2) The sensorgrams and fitted data for the binding of chimeric antibodies and humanized variants to factor Bb are shown in FIGS. 4A-4C. The relative KD was calculated by dividing the KD of the humanized variants by that of the chimeric antibody on the same chip. The kinetic parameters measured for the interaction of factor Bb with chimeric antibodies and humanized variants are shown in Table 10.

[3] = target: T1, Homo sapiens factor Bb protein; experiment: SPR multi-cycle kinetics, IgG on Protein A chip, factor Bb analyte
Protocol: as §1, §2

[4] = target: T1, Homo sapiens factor Bb protein; experiment: BLI, multi-cycle kinetics, antibody loaded on anti-hIgG Fc sensors, human factor Bb in solution (100 nM to 0.14 nM), 1:1 fit
Protocol: Multicycle kinetic analysis was performed on CHO and HEK-produced VH6/VK7-IgG4v2 antibodies using biolayer interferometry. Antibodies were diluted to 10 μg/mL in PBS+ 0.02%. Tween20, 0.1% BSA, 0.05% sodium azide and loaded onto anti-hIgG Fc sensors (pre-equilibrated in the same buffer) for 90 seconds followed by a 60-minute baseline in buffer. Binding of a concentration series of human factor Bb (Complement Technologies, #A155), ranging from 100 nM to 0.14 nM in 2-fold dilutions, was measured in a 300 second association in the same buffer, followed by a 300 second dissociation step.

[5] = target: T1, Homo sapiens factor Bb protein; experiment: SPR single cycle kinetics, antibody on Protein A chip, antigen analyte
Protocol: The ability of VH4/VK6 and VH6/VK7 to bind to zymogen factor B and factor Bb from both human and cynomolgus monkey was determined by surface plasmon resonance using a Biacore T200. Human factor B and factor Bb were purchased from Comptech and cynomolgus monkey factor B and factor Bb were purified in-house. Briefly, the monoclonal antibodies were captured on a Biacore Series S Protein A chip in HBSP+ (10 mM HEPES, 150 mM NaCl, 0.05% P20 pH 7.4) at a flow rate of 30 μL/min. A five-point concentration series of each analyte was tested for binding using single cycle kinetics with a contact time of 180 seconds per concentration followed by a 600 sec dissociation at 25° C. and a flow rate of […]. Both human and cynomolgus monkey factor B started at a concentration of 500 nM followed by 2-fold dilutions, while human and cynomolgus monkey factor Bb started at concentrations of 30 nM and 150 nM, respectively, followed by 2-fold dilutions. Data were analyzed using the Biacore evaluation software using a 1:1 binding model. […] Binding to human or cynomolgus monkey factor B was barely detectable and the small signal that was observed was dominated by non-specific binding.

| IC50 [1] | Relative KD [2] | Kd [3] | koff [3] | kon [3] | Kd [4] | Kd [5] | koff [5] | kon [5] | Binder |
| --- | --- | --- | --- | --- | --- | --- | --- | --- | --- |
| 1.23 nM | 1 | 1.99 nM and 1.91 nM and 1.9 nM | 0.000969 s⁻¹ and 0.000954 s⁻¹ and 0.00094 s⁻¹ | 487000 M⁻¹ s⁻¹ and 500000 M⁻¹ s⁻¹ and 495000 M⁻¹ s⁻¹ |  |  |  |  | B1 |
|  |  |  |  |  | 2.9 nM | 5.92 nM | 0.00138 s⁻¹ | 232000 M⁻¹ s⁻¹ | B2 |
